Data as given in patent publication US6500417 (DSM N V, dated 2002).

Columns and labels:
IL-3 receptor (human) = IL-3 receptor (human) (UniProt P26951); assay: cell-based or functional assay
IL-3 receptor [1] = target: T1, IL-3 receptor (human, UniProt P26951 19-378; P32927 17-897); assay: receptor binding assay on cells
T1 construct: whole, on cells; also called ILK3 receptor

IL-3 receptor [2] = target: T1, IL-3 receptor; assay: cell-based or functional assay
IL-3 receptor [3] = target: T1, IL-3 receptor; assay: competition with radiolabeled hIL-3 for binding to cells, relative to reference IL-3
Method: (§1) An ILK3 receptor binding assay was performed with purified recombinant hIL-3 (see EPA 0390252) was radiolabeled with the Bolton-Hunter reagent (as described by Budel et al., Blood 74 (1989) 565–571). The specific activity was estimated at 80,000 cpm/ng of IL-3. As target, either donor leukocytes, patient AML cells, or MV4-11 (ATCC: CRL-9591) cells were used. Cells were washed in Hanks Balanced Salt solution and suspended in Alpha-MEM plus 1% BSA. Usually, 3–10×10⁶ cells were incubated with 200–300 pM of radiolabeled IL-3 and various concentrations of unlabeled mutant protein in a total volume of 200 µl for 1 hr at 37° C. Cell-bound labeled IL-3 was centrifuged for 10 min at 1000×g at 4° C. through a 0.5 ml cushion of bovine calf serum in an Eppendorf tube (Budel et al., 1989). The tubes were frozen in liquid nitrogen and the tips cut off for counting in a Packard gamma counter. Competition binding was determined relative to the reference preparation. […] Radiolabeled IL-3 binding to patient AML blasts is competed with unlabeled IL-3 protein (reference preparation). Due to the low number of receptors (less than 200) on the target cells, data for competition mostly varied by one order of magnitude.

IL-3 receptor [4] = target: T1, IL-3 receptor; assay: competition with radiolabeled IL-3 for binding to cells; NC: No competition was observed for the particular mutein preparation
Method: as §1

IL-3 receptor [5] = target: T1, IL-3 receptor; assay: competition with radiolabeled hIL-3 for binding to cells, relative to reference IL-3; done once
Method: as §1
[1]Deletion between amino acid numbers of mature human IL-3 is indicated. Substitutions of amino acids are indicated in single letter code. [2]Median specific biological activity is expressed relative to the reference IL-3 preparations. [3]Antagonistic potential is represented as relative receptor binding activity divided by relative biological activity. The range is presented between brackets. […] Muteins were diluted in medium and tested for biological activity. Receptor binding experiments were performed once. †Mutein protein concentration was too low for densitometric scanning and was estimated from gels and western blots. ¤Mutant proteins were expressed in Bacillus and lack a leader polypeptide sequence.

T1 sequence (P26951 19-378, chain 1 of 2): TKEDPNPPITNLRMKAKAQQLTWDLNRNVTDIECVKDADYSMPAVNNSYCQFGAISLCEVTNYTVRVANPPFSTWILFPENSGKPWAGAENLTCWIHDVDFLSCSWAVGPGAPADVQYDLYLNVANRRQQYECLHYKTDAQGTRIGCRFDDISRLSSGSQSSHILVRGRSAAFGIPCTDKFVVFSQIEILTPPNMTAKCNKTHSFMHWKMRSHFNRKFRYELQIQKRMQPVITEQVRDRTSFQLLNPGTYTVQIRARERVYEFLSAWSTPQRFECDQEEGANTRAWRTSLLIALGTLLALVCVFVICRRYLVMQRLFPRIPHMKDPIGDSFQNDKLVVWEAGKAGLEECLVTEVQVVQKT
T1 sequence (P32927 17-897, chain 2 of 2): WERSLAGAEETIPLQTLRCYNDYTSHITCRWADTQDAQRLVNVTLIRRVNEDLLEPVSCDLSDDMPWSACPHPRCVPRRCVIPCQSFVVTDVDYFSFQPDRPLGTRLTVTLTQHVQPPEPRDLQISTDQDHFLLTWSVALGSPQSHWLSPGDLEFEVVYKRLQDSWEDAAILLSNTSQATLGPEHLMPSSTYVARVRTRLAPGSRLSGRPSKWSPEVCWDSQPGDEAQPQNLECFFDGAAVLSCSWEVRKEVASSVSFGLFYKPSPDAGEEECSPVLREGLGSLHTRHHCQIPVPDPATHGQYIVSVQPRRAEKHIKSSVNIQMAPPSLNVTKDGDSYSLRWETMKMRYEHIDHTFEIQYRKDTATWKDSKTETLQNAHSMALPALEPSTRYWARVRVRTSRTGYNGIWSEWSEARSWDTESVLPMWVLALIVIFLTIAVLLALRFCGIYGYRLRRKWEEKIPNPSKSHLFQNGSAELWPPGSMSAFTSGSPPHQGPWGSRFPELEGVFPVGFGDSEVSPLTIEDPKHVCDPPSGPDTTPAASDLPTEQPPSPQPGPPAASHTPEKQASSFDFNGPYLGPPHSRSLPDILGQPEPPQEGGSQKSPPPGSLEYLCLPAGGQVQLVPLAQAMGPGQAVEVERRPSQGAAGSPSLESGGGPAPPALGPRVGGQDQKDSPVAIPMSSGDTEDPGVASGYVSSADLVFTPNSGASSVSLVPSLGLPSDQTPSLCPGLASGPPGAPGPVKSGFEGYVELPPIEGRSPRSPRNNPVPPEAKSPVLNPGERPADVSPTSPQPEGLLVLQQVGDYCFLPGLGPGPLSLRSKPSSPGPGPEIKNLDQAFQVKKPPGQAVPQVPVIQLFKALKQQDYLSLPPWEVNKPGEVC
Chain of IL-3 receptor (human) (P26951 19-378, chain 1 of 2): as the sequence (P26951 19-378, chain 1 of 2) above
Chain of IL-3 receptor (human) (P32927 17-897, chain 2 of 2, further chain): as the sequence (P32927 17-897, chain 2 of 2) above

Molecule | binding activity retained (IL-3 receptor [1]) [percent] | REL. SPEC. BIOLOGICAL ACTIVITY (DNA synthesis of AML193 cells) (IL-3 receptor [2]) | relative antagonistic potential (relative receptor binding activity / relative biological activity) (IL-3 receptor [5]) | further results
hIL-3 substitution mutant 1489 (Arg94→Pro94) (from UniProt P08700 20-152) (ligand) |  |  |  | REL. SPEC. BIOLOGICAL ACTIVITY (DNA synthesis of AML193 cells) (relative to reference IL-3) (IL-3 receptor (human)): 0.0017
hIL-3 C-terminal deletion mutant 1455 (lacking amino acids 130-133) (ligand) APMTQTTPLKTSWVNCSNMIDEIITHLKQPPLPLLDFNNLNGEDQDILMENNLRRPNLEAFNRAVKSLQNASAIESILKNLLPCLPLATAAPTRHPIHIKDGDWNEFRRKLTFYLKTLENAQAQQTTLS | 100 |  |  | 
hIL-3 deletion mutant 932 (deletion 1-14) (ligand, not shown: heterologous N-terminal leader of the E. coli fusion (pGB/IL-336: 12 aa; pGB/IL-339: 15 aa)) NCSNMIDEIITHLKQPPLPLLDFNNLNGEDQDILMENNLRRPNLEAFNRAVKSLQNASAIESILKNLLPCLPLATAAPTRHPIHIKDGDWNEFRRKLTFYLKTLENAQAQQTTLSLAIF | 100 | 0.71 relative to reference IL-3 |  | relative antagonistic potential (relative receptor binding activity / relative biological activity) (IL-3 receptor [3]): 2.8
hIL-3 deletion mutant 813 (deletion 66-80) (ligand, also called 4813; not shown: heterologous N-terminal leader of the E. coli fusion (pGB/IL-336: 12 aa; pGB/IL-339: 15 aa)) APMTQTTPLKTSWVNCSNMIDEIITHLKQPPLPLLDFNNLNGEDQDILMENNLRRPNLEAFNRAVLLPCLPLATAAPTRHPIHIKDGDWNEFRRKLTFYLKTLENAQAQQTTLSLAIF |  | 2.4e-05 relative to reference IL-3 |  | binding result (IL-3 receptor [4]): no binding
hIL-3 double deletion mutant 9329 (deletions 1-14/120-130) (ligand, not shown: heterologous N-terminal leader of the E. coli fusion, rebuilt with oligonucleotides 1424/1425) NCSNMIDEIITHLKQPPLPLLDFNNLNGEDQDILMENNLRRPNLEAFNRAVKSLQNASAIESILKNLLPCLPLATAAPTRHPIHIKDGDWNEFRRKLTFYLKTLEAIF | 100 | 0.4 relative to reference IL-3 |  | relative antagonistic potential (relative receptor binding activity / relative biological activity) (IL-3 receptor [3]): 2
hIL-3 substitution mutant 1480 (Asp36→Arg36) (ligand, also called 36D→R; not shown: heterologous N-terminal leader of the E. coli fusion (pGB/IL-336: 12 aa; pGB/IL-339: 15 aa)) APMTQTTPLKTSWVNCSNMIDEIITHLKQPPLPLLRFNNLNGEDQDILMENNLRRPNLEAFNRAVKSLQNASAIESILKNLLPCLPLATAAPTRHPIHIKDGDWNEFRRKLTFYLKTLENAQAQQTTLSLAIF |  | 0.0031 relative to reference IL-3 | 12 | 
hIL-3 substitution mutant 1491 (Glu106→Lys106) (ligand, also called 106E → K; not shown: heterologous N-terminal leader of the E. coli fusion (pGB/IL-336: 12 aa; pGB/IL-339: 15 aa)) APMTQTTPLKTSWVNCSNMIDEIITHLKQPPLPLLDFNNLNGEDQDILMENNLRRPNLEAFNRAVKSLQNASAIESILKNLLPCLPLATAAPTRHPIHIKDGDWNKFRRKLTFYLKTLENAQAQQTTLSLAIF |  | 0.00032 relative to reference IL-3 | 6 | 
hIL-3 substitution mutant 1487B (Glu75→Arg75) (ligand, also called 75E → R; not shown: heterologous N-terminal leader of the E. coli fusion (pGB/IL-336: 12 aa; pGB/IL-339: 15 aa)) APMTQTTPLKTSWVNCSNMIDEIITHLKQPPLPLLDFNNLNGEDQDILMENNLRRPNLEAFNRAVKSLQNASAIRSILKNLLPCLPLATAAPTRHPIHIKDGDWNEFRRKLTFYLKTLENAQAQQTTLSLAIF |  | 0.0086 relative to reference IL-3 | 3 | 
hIL-3 substitution mutant 1490 (His98Lys100Asp101→Glu98Asp100Gln101) (ligand, also called 98HIKD → EIKQ; not shown: heterologous N-terminal leader of the E. coli fusion (pGB/IL-336: 12 aa; pGB/IL-339: 15 aa)) APMTQTTPLKTSWVNCSNMIDEIITHLKQPPLPLLDFNNLNGEDQDILMENNLRRPNLEAFNRAVKSLQNASAIESILKNLLPCLPLATAAPTRHPIEIDQGDWNEFRRKLTFYLKTLENAQAQQTTLSLAIF |  | 0.0022 relative to reference IL-3 | 5 | 
hIL-3 substitution mutant 1485 (Glu59→Lys59) (ligand, also called 59E → K; not shown: heterologous N-terminal leader of the E. coli fusion (pGB/IL-336: 12 aa; pGB/IL-339: 15 aa)) APMTQTTPLKTSWVNCSNMIDEIITHLKQPPLPLLDFNNLNGEDQDILMENNLRRPNLKAFNRAVKSLQNASAIESILKNLLPCLPLATAAPTRHPIHIKDGDWNEFRRKLTFYLKTLENAQAQQTTLSLAIF |  | 0.011 relative to reference IL-3 | 3 | 
hIL-3 substitution mutant 1487A (Glu75→Gly75) (ligand, also called 75E → G; not shown: heterologous N-terminal leader of the E. coli fusion (pGB/IL-336: 12 aa; pGB/IL-339: 15 aa)) APMTQTTPLKTSWVNCSNMIDEIITHLKQPPLPLLDFNNLNGEDQDILMENNLRRPNLEAFNRAVKSLQNASAIGSILKNLLPCLPLATAAPTRHPIHIKDGDWNEFRRKLTFYLKTLENAQAQQTTLSLAIF |  | 0.015 relative to reference IL-3 | 3 | 
hIL-3 substitution mutant 1482 (Asp46→Arg46) (ligand, also called 46D→R; not shown: heterologous N-terminal leader of the E. coli fusion (pGB/IL-336: 12 aa; pGB/IL-339: 15 aa)) APMTQTTPLKTSWVNCSNMIDEIITHLKQPPLPLLDFNNLNGEDQRILMENNLRRPNLEAFNRAVKSLQNASAIESILKNLLPCLPLATAAPTRHPIHIKDGDWNEFRRKLTFYLKTLENAQAQQTTLSLAIF |  | 0.0075 relative to reference IL-3 | 0.6 | 
hIL-3 deletion mutant 939 (deletion 120-130) (ligand, not shown: heterologous N-terminal leader of the E. coli fusion (pGB/IL-336: 12 aa; pGB/IL-339: 15 aa)) APMTQTTPLKTSWVNCSNMIDEIITHLKQPPLPLLDFNNLNGEDQDILMENNLRRPNLEAFNRAVKSLQNASAIESILKNLLPCLPLATAAPTRHPIHIKDGDWNEFRRKLTFYLKTLEAIF | 100 | 2 relative to reference IL-3 |  | relative antagonistic potential (relative receptor binding activity / relative biological activity) (IL-3 receptor [3]): 1.8
